For one molecule, stoichiometry N results are on record in PMC7748142.

The assay has as its target T1, peroxiredoxin 1 (PRDX1), murine lung fibroblasts (mouse (endogenous in MLFs)), P35700.
T1 chain: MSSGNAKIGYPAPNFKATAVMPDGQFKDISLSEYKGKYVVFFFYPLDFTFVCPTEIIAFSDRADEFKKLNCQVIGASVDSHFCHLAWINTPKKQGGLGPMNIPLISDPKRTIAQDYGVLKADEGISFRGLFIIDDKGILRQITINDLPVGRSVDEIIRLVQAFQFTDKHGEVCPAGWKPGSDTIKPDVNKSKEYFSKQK
As to the kind of experiment: non-reducing SDS-PAGE with Western blot; A549 or MLF cells treated with Auranofin (A549: 10 uM, MLF: 2 uM) alone or with KU55933 (10 uM, 1 h pre-treatment); lysed in CHAPS buffer with 100 mM NEM; boiled in non-reducing sample buffer; disulfide-linked dimers. The following applies: remark: other sources report otherwise. In general terms: Immunoblotting shows a protein as a band on a membrane.

One may read the stoichiometry N as the number of molecules, sites or subunits per partner or assembly.

B1: peroxiredoxin 1 (PRDX1), murine lung fibroblasts, P35700 1-199 (enzyme)
chain: T1 chain
B1: the stoichiometry N came to 2.
